Source: patent publication US20240132589A1 (ONCORESPONSE, published 2024)
One block for each binder: values may come before it.

Legend:
Assay in all cases: flow cytometry, transiently transfected HEK293-6E cells
[1] = target: T1, Human LILRB2 on transiently transfected HEK293-6E cells (human, UniProt Q8N423 22-597)
T1 construct: whole, on cells; also called hLILRB2
Description: (§1) To determine that the anti-LILRB2 antibodies specifically bind to LILRB2 and not other LILRB and LILRA family members, a cross-reactivity assay was performed. Cross-reactivity of the LILRB2 antibodies to other LILRB proteins was assessed by antibody binding to transiently transfected HEK293-6E cells, measured by flow cytometry. Binding was evaluated to HEK293-6E cells transiently transfected with human LILRB-1, -2, -3, -4, and 5 plasmids (Origene, Nos. RC219949, RC217935, RC211228, RC220932, RC206516) or to cells transiently transfected with human LILRA-1, -2, -4, -5, and -6 plasmids (Origene, Nos. RC210808, RC205626, RC220452, RC212310 RC212965). […] Murine primary antibodies to LILRA and LILRB targets and corresponding isotype controls were used to confirm specific binding of all targets tested (R&D Systems) while an AF647 F(ab′)₂ fragment goat anti-mouse antibody (Jackson ImmunoResearch, No. 115-606-062) was used for the detection of bound positive control antibodies. No binding of B2A-IgG4 or B2A-IgG1 to LILRB-1, -3, -4, or -5 was observed, and no binding of either antibody to LILRA-1, -2, -4, -5, or -6 was observed, confirming specificity of these antibodies.

[2] = target: T2, Human LILRA6 on transiently transfected HEK293-6E cells (human, UniProt Q6PI73 24-481)
T2 construct: whole, on cells; also called hLILRA6

[3] = target: T3, Human LILRA2 on transiently transfected HEK293-6E cells (human, UniProt Q8N149 24-483)
T3 construct: whole, on cells; also called hLILRA2

[4] = target: T4, Human LILRA4 on transiently transfected HEK293-6E cells (human, UniProt P59901 24-499)
T4 construct: whole, on cells; also called hLILRA4

[5] = target: T5, Human LILRA5 on transiently transfected HEK293-6E cells (human, UniProt A6NI73 42-299)
T5 construct: whole, on cells; also called hLILRA5

[6] = target: T6, Human LILRB5 on transiently transfected HEK293-6E cells (human, UniProt O75023 24-590)
T6 construct: whole, on cells; also called hLILRB5

[7] = target: T7, Human LILRB4 on transiently transfected HEK293-6E cells (human, UniProt Q8NHJ6 22-448)
T7 construct: whole, on cells; also called hLILRB4

[8] = target: T8, Human LILRA1 on transiently transfected HEK293-6E cells (human, UniProt O75019 17-489)
T8 construct: whole, on cells; also called hLILRA1

[9] = target: T9, Human LILRB1 on transiently transfected HEK293-6E cells (human, UniProt Q8NHL6 24-650)
T9 construct: whole, on cells; also called hLILRB1

[10] = target: T10, Human LILRB3 on transiently transfected HEK293-6E cells (human, UniProt O75022 24-631)
T10 construct: whole, on cells; also called hLILRB3

[11] = target: T1, Human LILRB2 on transiently transfected …; remark: listed apart in the source
Description: as §1
(§2) Select humanized variant antibodies were tested for their ability to bind other LILRB or LILRA family members, using the method and commercially available positive control antibodies of Example 5.

[12] = target: T2, Human LILRA6 on transiently transfected …; remark: listed apart in the source
Description: as §1, §2

[13] = target: T3, Human LILRA2 on transiently transfected …; remark: listed apart in the source
Description: as §1, §2

[14] = target: T4, Human LILRA4 on transiently transfected …; remark: listed apart in the source
Description: as §1, §2

[15] = target: T5, Human LILRA5 on transiently transfected …; remark: listed apart in the source
Description: as §1, §2

[16] = target: T6, Human LILRB5 on transiently transfected …; remark: listed apart in the source
Description: as §1, §2

[17] = target: T7, Human LILRB4 on transiently transfected …; remark: listed apart in the source
Description: as §1, §2

[18] = target: T8, Human LILRA1 on transiently transfected …; remark: listed apart in the source
Description: as §1, §2

[19] = target: T9, Human LILRB1 on transiently transfected …; remark: listed apart in the source
Description: as §1, §2

[20] = target: T10, Human LILRB3 on transiently transfected …; remark: listed apart in the source
Description: as §1, §2

T3 sequence (Q8N149 24-483): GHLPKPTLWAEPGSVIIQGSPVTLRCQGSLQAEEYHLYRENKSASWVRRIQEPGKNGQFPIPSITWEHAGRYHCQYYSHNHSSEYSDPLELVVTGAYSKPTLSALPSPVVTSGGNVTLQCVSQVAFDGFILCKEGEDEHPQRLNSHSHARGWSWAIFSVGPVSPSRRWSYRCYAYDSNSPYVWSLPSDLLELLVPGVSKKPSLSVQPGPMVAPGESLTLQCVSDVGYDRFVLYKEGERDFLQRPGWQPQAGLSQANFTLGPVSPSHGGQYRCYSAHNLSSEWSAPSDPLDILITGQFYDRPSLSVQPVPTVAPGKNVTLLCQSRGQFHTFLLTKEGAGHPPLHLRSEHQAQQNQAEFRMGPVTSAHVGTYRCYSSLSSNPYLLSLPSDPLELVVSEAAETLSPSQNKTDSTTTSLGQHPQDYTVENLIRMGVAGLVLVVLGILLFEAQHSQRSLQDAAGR
T1 sequence (Q8N423 22-597): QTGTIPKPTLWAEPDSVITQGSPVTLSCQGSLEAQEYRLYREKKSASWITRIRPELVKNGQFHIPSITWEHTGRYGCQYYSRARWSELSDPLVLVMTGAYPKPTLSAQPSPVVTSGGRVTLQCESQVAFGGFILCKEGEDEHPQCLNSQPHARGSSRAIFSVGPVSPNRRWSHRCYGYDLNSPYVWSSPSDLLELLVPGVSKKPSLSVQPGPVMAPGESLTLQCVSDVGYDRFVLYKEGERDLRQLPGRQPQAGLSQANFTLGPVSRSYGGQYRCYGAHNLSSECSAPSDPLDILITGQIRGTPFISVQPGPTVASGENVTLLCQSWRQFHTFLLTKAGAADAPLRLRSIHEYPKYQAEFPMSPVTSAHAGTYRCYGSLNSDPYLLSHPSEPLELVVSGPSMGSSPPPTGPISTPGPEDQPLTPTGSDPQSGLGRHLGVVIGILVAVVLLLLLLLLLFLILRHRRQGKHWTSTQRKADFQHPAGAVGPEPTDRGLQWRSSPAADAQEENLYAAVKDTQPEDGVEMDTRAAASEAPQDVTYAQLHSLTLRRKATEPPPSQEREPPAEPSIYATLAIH
T8 sequence (O75019 17-489): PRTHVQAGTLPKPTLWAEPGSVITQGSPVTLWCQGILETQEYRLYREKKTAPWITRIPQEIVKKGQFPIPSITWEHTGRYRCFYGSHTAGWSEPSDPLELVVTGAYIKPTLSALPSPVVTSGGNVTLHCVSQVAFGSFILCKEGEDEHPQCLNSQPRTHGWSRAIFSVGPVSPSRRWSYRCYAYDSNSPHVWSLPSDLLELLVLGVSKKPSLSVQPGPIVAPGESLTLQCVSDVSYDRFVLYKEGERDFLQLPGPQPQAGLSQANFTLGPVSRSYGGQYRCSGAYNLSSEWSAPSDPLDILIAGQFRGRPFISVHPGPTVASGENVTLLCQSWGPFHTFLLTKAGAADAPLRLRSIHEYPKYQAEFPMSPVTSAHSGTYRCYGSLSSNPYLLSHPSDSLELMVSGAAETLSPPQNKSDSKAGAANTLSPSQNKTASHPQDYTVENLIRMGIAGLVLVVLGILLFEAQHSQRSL
T4 sequence (P59901 24-499): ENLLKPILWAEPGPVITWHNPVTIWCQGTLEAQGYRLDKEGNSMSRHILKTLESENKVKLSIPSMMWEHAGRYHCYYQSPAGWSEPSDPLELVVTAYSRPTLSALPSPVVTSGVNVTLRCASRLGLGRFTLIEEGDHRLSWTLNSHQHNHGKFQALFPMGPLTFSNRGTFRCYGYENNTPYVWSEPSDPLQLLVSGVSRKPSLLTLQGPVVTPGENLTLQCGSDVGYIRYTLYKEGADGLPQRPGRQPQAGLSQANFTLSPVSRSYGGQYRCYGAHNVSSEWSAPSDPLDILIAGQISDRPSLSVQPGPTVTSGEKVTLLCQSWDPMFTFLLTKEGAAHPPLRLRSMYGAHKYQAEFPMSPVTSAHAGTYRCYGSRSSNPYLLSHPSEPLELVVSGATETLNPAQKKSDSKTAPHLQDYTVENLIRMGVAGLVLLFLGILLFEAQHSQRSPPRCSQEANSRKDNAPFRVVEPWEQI
T2 sequence (Q6PI73 24-481): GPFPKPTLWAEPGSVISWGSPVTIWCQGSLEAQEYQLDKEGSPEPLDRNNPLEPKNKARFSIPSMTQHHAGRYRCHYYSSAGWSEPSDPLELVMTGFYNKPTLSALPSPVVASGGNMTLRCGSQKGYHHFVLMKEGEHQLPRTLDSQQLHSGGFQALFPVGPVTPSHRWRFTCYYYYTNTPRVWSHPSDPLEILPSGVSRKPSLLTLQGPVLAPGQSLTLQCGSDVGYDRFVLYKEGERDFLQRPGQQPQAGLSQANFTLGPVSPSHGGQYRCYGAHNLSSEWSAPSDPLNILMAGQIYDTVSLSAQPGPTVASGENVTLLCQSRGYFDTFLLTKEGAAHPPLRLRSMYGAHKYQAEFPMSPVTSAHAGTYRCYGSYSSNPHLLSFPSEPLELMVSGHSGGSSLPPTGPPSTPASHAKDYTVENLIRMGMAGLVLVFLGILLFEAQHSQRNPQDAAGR
T6 sequence (O75023 24-590): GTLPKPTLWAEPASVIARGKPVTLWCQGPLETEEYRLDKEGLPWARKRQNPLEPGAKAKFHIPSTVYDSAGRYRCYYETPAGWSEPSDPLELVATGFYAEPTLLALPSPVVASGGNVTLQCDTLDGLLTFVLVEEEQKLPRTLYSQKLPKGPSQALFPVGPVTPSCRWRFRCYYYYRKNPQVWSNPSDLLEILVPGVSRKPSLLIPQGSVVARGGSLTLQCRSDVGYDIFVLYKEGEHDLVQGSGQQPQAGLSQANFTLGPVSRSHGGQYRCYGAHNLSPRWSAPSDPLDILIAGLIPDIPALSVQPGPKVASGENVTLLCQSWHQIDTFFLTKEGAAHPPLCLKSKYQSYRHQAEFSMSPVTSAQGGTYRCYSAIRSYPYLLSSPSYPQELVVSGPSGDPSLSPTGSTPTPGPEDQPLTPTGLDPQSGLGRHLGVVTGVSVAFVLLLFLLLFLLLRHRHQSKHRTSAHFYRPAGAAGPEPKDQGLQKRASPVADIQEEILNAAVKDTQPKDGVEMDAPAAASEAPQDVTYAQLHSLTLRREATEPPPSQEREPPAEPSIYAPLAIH
T9 sequence (Q8NHL6 24-650): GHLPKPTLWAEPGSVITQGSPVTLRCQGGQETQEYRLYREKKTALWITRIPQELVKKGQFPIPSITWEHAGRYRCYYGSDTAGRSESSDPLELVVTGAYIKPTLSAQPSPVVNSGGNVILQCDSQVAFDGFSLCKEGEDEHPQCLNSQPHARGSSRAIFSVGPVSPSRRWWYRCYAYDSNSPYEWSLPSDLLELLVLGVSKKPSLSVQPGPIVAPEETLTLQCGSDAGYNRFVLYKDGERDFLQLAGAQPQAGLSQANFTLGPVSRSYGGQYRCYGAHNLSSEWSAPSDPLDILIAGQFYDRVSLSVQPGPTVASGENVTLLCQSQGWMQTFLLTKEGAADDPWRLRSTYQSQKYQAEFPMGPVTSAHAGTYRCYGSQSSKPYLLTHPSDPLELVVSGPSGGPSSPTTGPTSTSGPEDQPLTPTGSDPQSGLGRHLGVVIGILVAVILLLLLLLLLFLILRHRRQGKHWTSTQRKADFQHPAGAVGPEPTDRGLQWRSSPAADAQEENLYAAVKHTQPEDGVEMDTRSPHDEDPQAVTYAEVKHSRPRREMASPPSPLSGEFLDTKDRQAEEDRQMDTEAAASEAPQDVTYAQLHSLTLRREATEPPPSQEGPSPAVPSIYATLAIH
T5 sequence (A6NI73 42-299): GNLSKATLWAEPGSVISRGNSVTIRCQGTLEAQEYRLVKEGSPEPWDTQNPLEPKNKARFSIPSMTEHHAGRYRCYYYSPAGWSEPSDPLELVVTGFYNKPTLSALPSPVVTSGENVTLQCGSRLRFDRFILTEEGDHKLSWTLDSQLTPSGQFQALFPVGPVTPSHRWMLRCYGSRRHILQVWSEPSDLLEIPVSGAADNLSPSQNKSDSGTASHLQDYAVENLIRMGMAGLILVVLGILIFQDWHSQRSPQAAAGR

- MFI [1]: 9630 MFI
B1: B2Comp1 (antibody, human IgG4 S228P, lambda, V domains shown)
VH: EVQLQQWGAGLLKPSETLSLTCAVYGGSFSGYYWSWIRQPPGKGLEWIGEINHAGSTNYNPSLKSRVTISVDTSKNQFSLKLSSVTAADTAVYYCARLPTRWVTTRYFDLWGRGTLVTVSS
VL: ESVLTQPPSVSGAPGQRVTISCTGSSSNIGAGYDVHWYQQLPGTAPKLLIYGDSNRPSGVPDRFSVSKSGASASLAITGLQAEDEADYYCQSFDNSLSAYVFGGGTQLTVLG
notes: Benchmark antibody, IgG4 heavy chain and lambda light chain; biotin-conjugated when used as the labelled antibody in binning; also called MK-4830 (as designated in WO 2021/138079 A1); αLILRB2B2Comp1

- binding result [2]: no binding
- binding result [3]: no binding
- binding result [4]: no binding
- binding result [5]: no binding
- binding result [6]: no binding
- binding result [7]: no binding
- binding result [8]: no binding
- binding result [9]: no binding
- binding result [10]: no binding
- Bmax (MFI) [11]: 10300 MFI
- Bmax (MFI) [12]: 202 MFI
- Bmax (MFI) [13]: 33.6 MFI
- BMAX [gMFI] [14]: 103 gMFI
- Bmax (MFI) [15]: 122 MFI
- Bmax (MFI) [16]: 145 MFI
- Bmax (MFI) [17]: 38.5 MFI
- Bmax (MFI) [18]: 766 MFI
- Bmax (MFI) [19]: 41.3 MFI
- Bmax (MFI) [20]: 146 MFI
B2: B2H1-35 (antibody, V domains shown)
VH: QVQLVESGGRVVQPGTPLRLSCAASGFSLSTYAMSWVRQAPGKGLEWVAWIYNDGSTYYAAWAKGRFTISRDTSKNTLYLQTNSLKPDDTAVYYCAREGDYIGYFNIWGQGTLVTVSS
VL: DVVMTQTPSSVSAALGGTVTIKCQASQSIGSNLAWYQLKPGQRPKLLIYAAATLASGGSSRFKGSGSGTDFTLTISSLEPADAATYYCQSYVSGSSDVAFGGGTEVVVK
notes: Humanized variant, human IgG1 / kappa

- binding result [2]: no binding
- binding result [3]: no binding
- binding result [4]: no binding
- binding result [5]: no binding
- binding result [6]: no binding
- binding result [7]: no binding
- binding result [8]: no binding
- binding result [9]: no binding
- binding result [10]: no binding
- Bmax (MFI) [11]: 10300 MFI
- Bmax (MFI) [12]: 219 MFI
- Bmax (MFI) [13]: 36.1 MFI
- BMAX [gMFI] [14]: 106 gMFI
- Bmax (MFI) [15]: 123 MFI
- Bmax (MFI) [16]: 153 MFI
- Bmax (MFI) [17]: 40.5 MFI
- Bmax (MFI) [18]: 855 MFI
- Bmax (MFI) [19]: 42.3 MFI
- Bmax (MFI) [20]: 159 MFI
B3: B2H1-52 (antibody, V domains shown)
VH: EVQLLESGGGLVQPGTSLTLSCAASGFSLSTYAMSWVRQAPGKGLEWIGWIYNDGSTYYAAWAKGRFTISKDTSKTTLYLQITSLRAEDTATYFCAREGDYIGYFNIWGQGTLVTVSS
VL: DVVMTQSPSSVSASLGDRVTITCQASQSIGSNLAWYQQKPGQAPKLLIYAAATLASGVPSRFKGSGSGTDFTLTITSLQPADFATYYCQSYVSGSSDVAFGGGTKVEIK
notes: as for B2
